Laboratory results as given in PMC6212638, “In silico identification and biochemical characterization of the human dicarboxylate clamp TPR protein interaction network” (FEBS Open Bio, 2018).
Ends that are not written are not given here. Peptide text beside a SMILES is read from it.

T1: AIP (Homo sapiens, UniProt O00170)
T1 sequence (O00170 1-330): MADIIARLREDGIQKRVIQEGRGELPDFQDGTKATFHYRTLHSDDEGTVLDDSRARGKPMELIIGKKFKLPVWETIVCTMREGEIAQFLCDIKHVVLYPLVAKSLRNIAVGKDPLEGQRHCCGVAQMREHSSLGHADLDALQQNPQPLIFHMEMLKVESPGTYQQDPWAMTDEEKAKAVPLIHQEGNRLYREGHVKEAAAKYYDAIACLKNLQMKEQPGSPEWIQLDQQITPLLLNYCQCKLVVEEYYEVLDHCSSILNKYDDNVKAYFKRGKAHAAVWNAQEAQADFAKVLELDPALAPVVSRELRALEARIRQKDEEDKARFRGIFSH

T2: FKBP51 (Homo sapiens, UniProt Q13451)
T2 sequence (Q13451 1-457): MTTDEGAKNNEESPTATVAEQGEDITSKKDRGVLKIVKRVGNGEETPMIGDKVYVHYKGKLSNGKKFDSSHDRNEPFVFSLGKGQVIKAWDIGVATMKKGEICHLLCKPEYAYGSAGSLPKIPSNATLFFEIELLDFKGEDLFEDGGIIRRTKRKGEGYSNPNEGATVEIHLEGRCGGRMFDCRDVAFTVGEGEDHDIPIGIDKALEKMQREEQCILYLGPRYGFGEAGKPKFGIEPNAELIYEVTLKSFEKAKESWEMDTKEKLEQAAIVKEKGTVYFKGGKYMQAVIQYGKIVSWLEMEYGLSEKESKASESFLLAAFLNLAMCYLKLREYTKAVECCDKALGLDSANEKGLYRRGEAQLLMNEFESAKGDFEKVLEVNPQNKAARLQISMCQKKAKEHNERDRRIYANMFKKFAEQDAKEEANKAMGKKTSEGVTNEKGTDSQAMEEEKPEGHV

T3: Tom70(94–608) (UniProt O94826 94-608)
T3 construct: mitochondrial import receptor Tom70, residues 94-608 as the primers are named; the reverse primer codes for ...KPPTL-stop; source: dot blots used GST-tag-free proteins
T3 sequence (looked up): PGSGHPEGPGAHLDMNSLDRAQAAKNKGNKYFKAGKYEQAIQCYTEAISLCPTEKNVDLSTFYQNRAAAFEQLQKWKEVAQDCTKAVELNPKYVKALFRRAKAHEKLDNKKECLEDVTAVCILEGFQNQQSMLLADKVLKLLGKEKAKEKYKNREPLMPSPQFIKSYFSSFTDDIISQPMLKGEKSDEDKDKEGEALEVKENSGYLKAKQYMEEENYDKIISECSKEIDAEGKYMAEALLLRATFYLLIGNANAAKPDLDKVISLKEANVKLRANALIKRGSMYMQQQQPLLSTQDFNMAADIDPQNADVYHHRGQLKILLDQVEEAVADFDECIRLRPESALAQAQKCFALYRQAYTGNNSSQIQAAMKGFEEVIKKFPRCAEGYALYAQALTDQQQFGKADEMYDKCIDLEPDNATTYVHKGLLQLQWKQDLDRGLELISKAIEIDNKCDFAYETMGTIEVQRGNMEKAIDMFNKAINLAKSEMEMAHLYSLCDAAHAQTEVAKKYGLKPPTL

T4: FKBP51 (human, UniProt Q13451 1-457)
T4 construct: GST-tag-free protein spotted on nitrocellulose; also called immobilized FKBP51; source: E. coli BL21, purified as GST fusion (GSTrap), GST removed with PreScission protease
T4 sequence (looked up): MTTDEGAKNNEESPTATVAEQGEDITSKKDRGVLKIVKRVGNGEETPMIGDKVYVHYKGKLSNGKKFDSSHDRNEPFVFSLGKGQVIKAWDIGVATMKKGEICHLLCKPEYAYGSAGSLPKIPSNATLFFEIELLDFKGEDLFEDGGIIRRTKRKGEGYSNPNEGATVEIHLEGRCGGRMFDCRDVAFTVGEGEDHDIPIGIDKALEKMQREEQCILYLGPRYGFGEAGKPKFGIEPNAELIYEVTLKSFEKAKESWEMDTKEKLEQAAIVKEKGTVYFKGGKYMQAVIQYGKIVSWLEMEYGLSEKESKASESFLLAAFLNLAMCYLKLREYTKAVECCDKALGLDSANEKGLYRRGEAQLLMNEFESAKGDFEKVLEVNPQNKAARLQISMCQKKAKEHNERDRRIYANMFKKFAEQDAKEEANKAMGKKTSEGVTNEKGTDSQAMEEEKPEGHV

T5: AIP (human, UniProt O00170 1-330)
T5 construct: GST-tag-free protein spotted on nitrocellulose; also called nitrocellulose-immobilized AIP; source: E. coli BL21, purified as GST fusion (GSTrap), GST removed with PreScission protease
T5 sequence (looked up): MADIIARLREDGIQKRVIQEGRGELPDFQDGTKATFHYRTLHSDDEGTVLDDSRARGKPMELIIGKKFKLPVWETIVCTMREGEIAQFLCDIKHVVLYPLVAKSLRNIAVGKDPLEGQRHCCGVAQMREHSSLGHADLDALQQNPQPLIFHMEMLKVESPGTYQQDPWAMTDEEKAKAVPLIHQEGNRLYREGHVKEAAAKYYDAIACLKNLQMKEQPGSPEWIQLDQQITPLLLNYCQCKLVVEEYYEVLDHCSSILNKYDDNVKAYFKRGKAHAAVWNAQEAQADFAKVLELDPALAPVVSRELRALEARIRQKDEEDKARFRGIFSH

T6: DNAAF2 (human, UniProt Q9NVR5 1-837)
T6 construct: prey of the pull-down; also called dynein axonemal assembly factor 2; source: E. coli BL21, purified as GST fusion (GSTrap), GST removed with PreScission protease
T6 sequence (looked up): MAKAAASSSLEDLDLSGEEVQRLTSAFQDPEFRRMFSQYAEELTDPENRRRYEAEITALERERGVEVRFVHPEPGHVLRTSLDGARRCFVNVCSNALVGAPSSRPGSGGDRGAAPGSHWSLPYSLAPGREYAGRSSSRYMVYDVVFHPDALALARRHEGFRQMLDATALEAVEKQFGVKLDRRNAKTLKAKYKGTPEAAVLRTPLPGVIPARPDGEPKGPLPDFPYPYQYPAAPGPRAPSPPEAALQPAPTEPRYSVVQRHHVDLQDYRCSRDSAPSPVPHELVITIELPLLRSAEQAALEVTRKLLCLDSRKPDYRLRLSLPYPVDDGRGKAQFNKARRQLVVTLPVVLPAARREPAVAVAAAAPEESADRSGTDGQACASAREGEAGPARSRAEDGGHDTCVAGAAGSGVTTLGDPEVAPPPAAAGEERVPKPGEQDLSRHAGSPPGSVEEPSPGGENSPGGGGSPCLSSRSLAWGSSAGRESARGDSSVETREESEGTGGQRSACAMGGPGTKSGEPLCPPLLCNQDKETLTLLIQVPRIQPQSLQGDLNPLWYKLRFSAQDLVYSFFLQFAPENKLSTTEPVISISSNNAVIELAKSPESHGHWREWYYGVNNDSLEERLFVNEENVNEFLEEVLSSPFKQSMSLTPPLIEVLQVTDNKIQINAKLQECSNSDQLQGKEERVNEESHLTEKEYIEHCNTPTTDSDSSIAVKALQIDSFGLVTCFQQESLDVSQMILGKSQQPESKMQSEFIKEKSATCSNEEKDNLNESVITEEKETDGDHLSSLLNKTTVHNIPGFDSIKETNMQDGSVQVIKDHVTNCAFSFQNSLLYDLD

T7: NADSYN1 (human, UniProt Q6IA69 1-706)
T7 construct: prey of the pull-down; also called Nicotinamide adenine dinucleotide synthase 1; source: E. coli BL21, purified as GST fusion (GSTrap), GST removed with PreScission protease
T7 sequence (looked up): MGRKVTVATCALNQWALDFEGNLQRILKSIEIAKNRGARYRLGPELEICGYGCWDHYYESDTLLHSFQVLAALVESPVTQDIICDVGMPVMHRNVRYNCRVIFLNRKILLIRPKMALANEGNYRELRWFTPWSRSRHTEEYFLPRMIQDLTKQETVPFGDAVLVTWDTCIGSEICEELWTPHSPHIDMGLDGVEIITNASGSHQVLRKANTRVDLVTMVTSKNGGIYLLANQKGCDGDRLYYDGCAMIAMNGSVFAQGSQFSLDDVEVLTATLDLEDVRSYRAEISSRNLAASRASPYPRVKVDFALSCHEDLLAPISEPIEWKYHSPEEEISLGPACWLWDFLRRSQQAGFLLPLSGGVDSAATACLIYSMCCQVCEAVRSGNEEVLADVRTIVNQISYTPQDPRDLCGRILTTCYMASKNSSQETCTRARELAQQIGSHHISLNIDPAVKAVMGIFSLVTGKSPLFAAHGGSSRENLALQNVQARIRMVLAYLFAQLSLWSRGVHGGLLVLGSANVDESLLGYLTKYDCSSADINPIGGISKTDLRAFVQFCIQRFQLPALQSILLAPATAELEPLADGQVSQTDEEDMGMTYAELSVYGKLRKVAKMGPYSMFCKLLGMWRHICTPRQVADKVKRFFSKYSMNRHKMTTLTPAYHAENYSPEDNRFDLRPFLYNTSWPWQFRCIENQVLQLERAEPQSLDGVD


Key:
AIP [1] = target: T1, AIP; experiment: Dot-blot competition assay: HRP-conjugated peptide vs unlabeled peptide on nitrocellulose-immobilized AIP
Method: (§1) Full‐length cDNA clones for respective proteins were obtained from IMAGE consortium (SourceBioScience, Nottingham, UK) and PCR amplified with forward and reverse primers (Table 1) containing overhangs with appropriate restriction sites and cloned into pGEX6 vectors (GE Healthcare, Uppsala, Sweden). Inserts were sequence verified, and the plasmids were transformed into BL21 Escherichia coli strain. Glutathione‐S‐transferase (GST) fusion proteins were purified from 1 L overnight culture after 2 h of induction with 1 mM IPTG. Cells were pelleted, resuspended in 1× PBS and sonicated 3 × 20 s on ice. EDTA and protease inhibitor cocktail were added to prevent proteolysis. The suspension was centrifuged for 30 min at 50 000 g to remove cell debris, and supernatant was loaded onto a 1 mL GSTrap™ 4B column (GE Healthcare). After column washing with 30 mL PBS, GST fusion proteins were eluted with 2.5 mL 10 mM glutathione in PBS. Eluate was passed through a PD‐10 column (GE Healthcare) to remove free glutathione. To prepare GST‐tag‐free proteins, we performed overnight cleavage at 4 °C with PreScission protease (GE Healthcare) followed by passage through a GSTrap column to remove free GST protein. Average yield from 1 L starting culture was 1–5 mg of purified proteins. Protein‐containing fractions were collected, checked with SDS/PAGE and kept at −20 °C.
(§2) Peptides were dissolved in HEPES‐KOH buffer pH 7.2 at concentration of 1 mg·mL^−1 and incubated with equimolar amounts of activated horseradish peroxidase (HRP) (Lightning‐link® HRP labeling kit cat. 701‐004, from Innova Biosciences) for 5 min. Reaction was quenched with 0.1 M Tris/HCl, pH 7.5 for 10 min and the products were passed through PD‐10 columns (GE Healthcare). Dot‐blot experiments were performed using GST‐tag‐free proteins applied to the nitrocellulose membrane. After blocking of membrane with 3% BSA in TBS‐T buffer for 1 h and subsequent wash with TBS‐T, HRP‐conjugated peptides (1 × 500 times dilution) were applied and incubated for 1 h. After subsequent washing (3 × 10 min, TBS‐T), membrane was dried and signals were quantified using a digital Fujifilm LAS3000 imager and LAS3000 software. In competition experiments, increasing concentrations of unlabeled peptides were co‐incubated with peptide–HRP conjugates.
(§3) Each peptide was separately coupled to HRP.

Tom70 = experiment: Dot-blot assay of Tom70 with HRP-conjugated Hsp90 and Tom20 peptides in presence of unconjugated peptides; format: binding, human; conditions: 20 μM unconjugated peptide
Method: In subsequent experiments, non‐fluorescent peptides were used. […] Cell impermeable Hsp90 peptide served as a treatment control.
Figure 6 In vitro and in situ analysis of interactions of 10‐amino‐acid peptides corresponding to C termini of Hsp90 and Tom20 with Tom70. (A) Dot‐blot assay of interactions between Tom70 and HRP‐conjugated 10‐amino‐acid peptides corresponding to C termini of Hsp90 and Tom20 in the presence of 20 μM of unconjugated peptides. (B) Fluorescence imaging of HEK293 cells in the presence of 20 μM of fluorescein‐labeled Hsp90, R9–Hsp90, Tom20 and R9–Tom20 peptides. (C) Inhibition of Tom20–Tom70 and Hsp90–Tom70 interactions with R9–Hsp90 and R9–Tom20 in HEK293 cells measured by PLA. n = 3. Graphs were created and SD values were calculated using PRISM, version 7.02. *P‐value < 0.05 compared to control; comparisons are based on one‐way ANOVA. (D) Inhibition of Tom20–Tom70 and Hsp90–Tom70 interactions with R9–Hsp90 and R9–Tom20 in HEK293 cells measured by mammalian two‐hybrid assay. n = 3. Graphs were created and SD values were calculated using PRISM, version 7.02. *P‐value < 0.05 compared to control; comparisons are based on one‐way ANOVA.

FKBP51 [2] = target: T2, FKBP51; experiment: Dot-blot competition assay: HRP-conjugated peptide vs unlabeled peptide on immobilized FKBP51
Method: as §1, §2, §3

Tom70(94–608) = target: T3, Tom70(94–608); experiment: far-Western, overlay or dot blot; Tom70 on nitrocellulose, probed with HRP-conjugated Hsp90 or Tom20 peptide in the presence of 20 μM of unconjugated peptides; conditions: both partners purified
FKBP51 [3] = target: T4, FKBP51; experiment: far-Western, overlay or dot blot; GST-tag-free FKBP51 or AIP on nitrocellulose, blocked with 3% BSA in TBS-T, probed 1 h with HRP-conjugated peptide, alone or with increasing concentrations of unlabeled peptide; luminescence quantified; IC50 estimated; n = 3; conditions: both partners purified
AIP [4] = target: T5, AIP; experiment: as above; conditions: both partners purified
DNAAF2 = target: T6, DNAAF2; experiment: pull-down; GST–AIP and GST–FKBP51 as bait, purified full-length and truncated proteins as prey; bound proteins probed by western blot with their antibodies; conditions: both partners purified
NADSYN1 = target: T7, NADSYN1; experiment: as above; conditions: both partners purified

Molecule | binding result (Tom70(94–608)) | binding result (DNAAF2) | binding result (NADSYN1) | also measured
CC(C)C[C@H](NC(=O)[C@H](CO)NC(=O)[C@H](CCC(N)=O)NC(=O)[C@H](C)N)C(=O)N[C@@H](C)C(=O)N[C@@H](CCC(=O)O)C(=O)N[C@@H](CC(=O)O)C(=O)N[C@@H](CC(=O)O)C(=O)N[C@H](C(=O)N[C@@H](CCC(=O)O)C(=O)O)C(C)C [Tom20] (H-AQSLAEDDVE-OH) | – | – | – | IC50 (AIP [1]): 35.3 ± 3.2 µM; competition with HRP-conjugated Hsp90 peptide for Tom70 binding (Tom70): unable to disrupt; IC50 (FKBP51 [2]): 132 ± 12.6 µM
AQSLAEDDVE (also: HRP-conjugated, the 10 C-terminal residues of Tom20) [HRP-conjugated Tom20 peptide] | binds | – | – | –
EDASRMEEVD (the 10 C-terminal residues of Hsp90β; also called Hsp90 peptide; Hsp90β-derived peptide; source: synthetic peptide (Peptide 2.0, Inc.), > 95% purity) [Hsp90β peptide] | binds | – | – | IC50 (FKBP51 [3]): 16 µM; IC50 (AIP [4]): 18 µM
GST–AIP (natural protein, human, UniProt O00170 1-330, looked up, bait of the GST pull-down; source: E. coli BL21, purified (GSTrap 4B, PD-10)) MADIIARLREDGIQKRVIQEGRGELPDFQDGTKATFHYRTLHSDDEGTVLDDSRARGKPMELIIGKKFKLPVWETIVCTMREGEIAQFLCDIKHVVLYPLVAKSLRNIAVGKDPLEGQRHCCGVAQMREHSSLGHADLDALQQNPQPLIFHMEMLKVESPGTYQQDPWAMTDEEKAKAVPLIHQEGNRLYREGHVKEAAAKYYDAIACLKNLQMKEQPGSPEWIQLDQQITPLLLNYCQCKLVVEEYYEVLDHCSSILNKYDDNVKAYFKRGKAHAAVWNAQEAQADFAKVLELDPALAPVVSRELRALEARIRQKDEEDKARFRGIFSH | – | binds | binds | –
EDASRMEEVD (also: HRP-conjugated, the 10 C-terminal residues of Hsp90β; also called HRP–Hsp90; Hsp90 peptide conjugated to HRP) [HRP-conjugated Hsp90β peptide] | binds | – | – | –
GST–FKBP51 (natural protein, human, UniProt Q13451 1-457, looked up, bait of the GST pull-down; source: E. coli BL21, purified (GSTrap 4B, PD-10)) MTTDEGAKNNEESPTATVAEQGEDITSKKDRGVLKIVKRVGNGEETPMIGDKVYVHYKGKLSNGKKFDSSHDRNEPFVFSLGKGQVIKAWDIGVATMKKGEICHLLCKPEYAYGSAGSLPKIPSNATLFFEIELLDFKGEDLFEDGGIIRRTKRKGEGYSNPNEGATVEIHLEGRCGGRMFDCRDVAFTVGEGEDHDIPIGIDKALEKMQREEQCILYLGPRYGFGEAGKPKFGIEPNAELIYEVTLKSFEKAKESWEMDTKEKLEQAAIVKEKGTVYFKGGKYMQAVIQYGKIVSWLEMEYGLSEKESKASESFLLAAFLNLAMCYLKLREYTKAVECCDKALGLDSANEKGLYRRGEAQLLMNEFESAKGDFEKVLEVNPQNKAARLQISMCQKKAKEHNERDRRIYANMFKKFAEQDAKEEANKAMGKKTSEGVTNEKGTDSQAMEEEKPEGHV | – | binds | binds | –
